# Measured values taken from publication PMC7467569, “The Progesterone 5β-Reductase/Iridoid Synthase Family: A Catalytic Reservoir for Specialized Metabolism across Land Plants” (ACS Chemical Biology, 2020).
# Experiments:
# Experiment in all cases: purified protein
# [1] = tested on: CC(=O)[C@H]1CC[C@H]2[C@@H]3CCC4=CC(=O)CC[C@]4(C)[C@H]3CC[C@]12C; type: biochemical, Digitalis purpurea; conditions: 250 μM NADPH, 50 mM HEPES/NaOH pH 7.0, 100 mM NaCl, 25 °C, 1.5% ethanol
# [2] = tested on: C/C(C=O)=C\CC/C(C)=C/C=O; conditions: 250 μM NADPH, 50 mM HEPES/NaOH pH 7.0, 100 mM NaCl, 25 °C, 0.1% tetrahydrofuran
# [3] = tested on: CC(=O)[C@H]1CC[C@H]2[C@@H]3CCC4=CC(=O)CC[C@]4(C)[C@H]3CC[C@]12C; conditions: 250 μM NADPH, 50 mM HEPES/NaOH pH 7.0, 100 mM NaCl, 25 °C, 1.5% ethanol
# [4] = tested on: CC(=O)[C@H]1CC[C@H]2[C@@H]3CCC4=CC(=O)CC[C@]4(C)[C@H]3CC[C@]12C; type: biochemical, Digitalis lanata; conditions: 250 μM NADPH, 50 mM HEPES/NaOH pH 7.0, 100 mM NaCl, 25 °C, 1.5% ethanol
substance,measurement,setting,value
Digitalis purpurea 2 (Digitalis purpurea),Km,[1],6.3 ± 1.9 µM
Physcomitrella patens PRISE (Physcomitrium patens),Km,[2],31.3 ± 8.6 µM
same,kcat,[2],0.066 ± 0.005 s⁻¹
same,kcat/Km,[2],2100 M⁻¹ s⁻¹
same,Km,[3],9.5 ± 3.1 µM
"Digitalis lanata 1 (PRISE1, progesterone 5β-reductase) (Digitalis lanata)",Km,[4],6.5 ± 2.0 µM
